± gives the standard error. This sample holds only a part of the variants without activity.
B1: glmS ribozyme (parent)
chain: AUAAAAGCGCCAGAACUACAGAAAUGUAGUUGACGAGGAGGAGGUUUAUCGAAUUUUCGGCGGAUGCCUCCAAA

What was measured:
Settings in all cases: with glucosamine-6-phosphate
glucosamine-6-phosphate [1] = variants of: B1; test: self-cleavage kobs at 40 uM GlcN6P; higher = faster cleavage; RNA array
Outline: (§1)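 Barcoded ribozyme variants on sequenced MiSeq chips were transcribed in situ by E. coli RNA polymerase and followed at 37 °C through a hybridised Cy3 probe. Glucosamine-6-phosphate at 40 μM to 10 mM in HEPES/KCl/Mg(OAc)2 buffer was flowed in, and tiles were imaged over ~14 h. Signals were normalised to baseline and to non-cleaving reference variants, and per-tile medians were fit to one- or two-exponential decays to give kobs. Weighted Michaelis–Menten fits across concentrations gave kcat and KM.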

glucosamine-6-phosphate [2] = variants of: B1; test: self-cleavage kobs at 160 uM GlcN6P; higher = faster cleavage; RNA array
Outline: as §1

glucosamine-6-phosphate [3] = variants of: B1; test: self-cleavage kobs at 640 uM GlcN6P; higher = faster cleavage; RNA array
Outline: as §1

glucosamine-6-phosphate [4] = variants of: B1; test: self-cleavage kobs at 2500 uM GlcN6P; higher = faster cleavage; RNA array
Outline: as §1

glucosamine-6-phosphate [5] = variants of: B1; test: self-cleavage kobs at 10000 uM GlcN6P; higher = faster cleavage; RNA array
Outline: as §1

Variant | self-cleavage kobs at 40 uM GlcN6P (glucosamine-6-phosphate [1]) [s⁻¹] | self-cleavage kobs at 160 uM GlcN6P (glucosamine-6-phosphate [2]) [s⁻¹] | self-cleavage kobs at 640 uM GlcN6P (glucosamine-6-phosphate [3]) [s⁻¹] | self-cleavage kobs at 2500 uM GlcN6P (glucosamine-6-phosphate [4]) [s⁻¹] | self-cleavage kobs at 10000 uM GlcN6P (glucosamine-6-phosphate [5]) [s⁻¹]
C34U U55G C71U | < 1e-05 | – | – | – | –
A6G A15U C16G A53G C61G G63A | < 1e-05 | < 1e-05 | < 1e-05 | < 1e-05 | –
A42C U47G | < 1e-05 | – | – | < 1e-05 | –
G41A U57G | < 1e-05 | – | – | – | < 1e-05
G44C G51U | < 1e-05 | – | – | < 1e-05 | < 1e-05
U55G C67G | 0.000127 ± 1.4e-05 | 0.000234 ± 5.1e-05 | 0.000819 ± 0.00012 | 0.000472 ± 0.0001 | 0.00597 ± 0.00099
G7U A12C G29C | < 1e-05 | < 1e-05 | < 1e-05 | < 1e-05 | –
G44A G51A U65G C67G | < 1e-05 | < 1e-05 | < 1e-05 | < 1e-05 | < 1e-05
A36C G51A | < 1e-05 | – | – | – | < 1e-05
C50G G59A | 4.42e-05 ± 2.2e-05 | 8.57e-05 ± 2.1e-05 | – | – | –
G35U G40U | < 1e-05 | < 1e-05 | < 1e-05 | < 1e-05 | < 1e-05
G40A C71G | 0.000326 ± 5.2e-05 | 0.00034 ± 0.00014 | 0.00161 ± 0.00038 | 0.00373 ± 0.0013 | 0.00695 ± 0.0013
C8U G59U | < 1e-05 | < 1e-05 | < 1e-05 | < 1e-05 | < 1e-05
A42U G51U | < 1e-05 | < 1e-05 | < 1e-05 | – | < 1e-05
G9U A33C A36C U46C C68G | < 1e-05 | – | – | – | < 1e-05
A42G A48U G62U C71U | < 1e-05 | – | < 1e-05 | < 1e-05 | < 1e-05
C10U G38U G41A | < 1e-05 | – | – | – | –
C11U A15G C50G | 5.89e-05 ± 2.4e-05 | – | – | – | –
G41A U49C | < 1e-05 | < 1e-05 | < 1e-05 | < 1e-05 | –
U30A G44A | < 1e-05 | < 1e-05 | – | – | 4.03e-05 ± 8.7e-06
